Results as given in patent publication CN113336845A (LANZHOU VETERINARY RES INST CAAS, dated 2021).

Target: T1, 融合蛋白3AN (FMDV 3A epitope fused to PRRSV N protein)
T1 construct: also called 3AN融合蛋白; 3AN蛋白抗原
Test: ELISA, biotin-labelled C8 detects 3AN captured by 3A24

B1: 猪繁殖与呼吸综合征病毒核衣壳蛋白的猪源单个B细胞抗体C8 (antibody, V domains shown)
VH: GLVQPGGSLRLSCVASGFTFSSYIVTWVRQSPGKGLEWLAGTGVGEYALYYRNSVRGRFTLSRDNSQNTAYLQMNSLRVEETGRYFCRRGAAESVDLWGPGVEVVVSS
VL: QEPAMSVSLGGTVTLTCAFSSGSVTRSHWPSWFQLTPGQPPRTLIVSTDSRPTGVPSRFSGAISGYKAALTITGAQPEDEADYVCGVYFTFTKRPFGGGTHLTVLG
notes: also called C8单抗; 单克隆抗体C8
binding result: binds
